Measurements published in publication PMC4043945, “Biochemical and Molecular Characterization of Barley Plastidial ADP-Glucose Transporter (HvBT1)” (PLoS ONE, 2014).

What was measured:
[1] = substrate: Nc1ncnc2c1ncn2[C@@H]1O[C@H](COP(=O)(O)OP(=O)(O)O[C@H]2O[C@H](CO)[C@@H](O)[C@H](O)[C@H]2O)[C@@H](O)[C@H]1O; test: radiolabelled uptake (Michaelis-Menten) in intact E. coli cells expressing HvBT1; empty-plasmid control subtracted; assay type: cell-based, Hordeum vulgare
[2] = substrate: Nc1ncnc2c1ncn2[C@@H]1O[C@H](COP(=O)(O)OP(=O)(O)O)[C@@H](O)[C@H]1O; test: radiolabelled uptake (Michaelis-Menten) in intact E. coli cells expressing HvBT1; also counter-exchange and reduction of ADP-Glc uptake; assay type: cell-based, Hordeum vulgare; settings: counter-exchange substrate with ADP-glucose

B1: HvBT1 (barley plastidial ADP-glucose transporter) (Hordeum vulgare subsp. vulgare) (protein)
chain: MAAAMAATTMVTKNNGGSLAMDKKNWFFRPAPEVAFSWSSQPESRSLEFPRRALFASVGLSLSHDGKARPADDVAHQLAAAGDAGVQQAQKAKKAKKQQLGLRKVRVKIGNPHLRRLVSGAIAGAVSRTFVAPLETIRTHLMVGSSGADSMGGVFRWIMRTEGWPGLFRGNAVNVLRVAPSKAIEHFTYDTAKKYLTPEAGEPAKVPIPTPLVAGALAGVASTLCTYPMELVKTRLTIEKDVYDNLLHAFVKIVRDEGPGELYRGLAPSLIGVVPYAAANFYAYETLRGAYRRASGKEEVGNVPTLLIGSAAGAIASTATFPLEVARKQMQVGAVGGRQVYKNVLHAMYCILNKEGAAGLYRGLGPSCIKLMPAAGISFMCYEACKKILVDDKQDGEPQDQEETETGHTQGQAAPKSPNANGDRP
notes: codon-optimized ORF in pET16b with N-terminal His-tag, expressed in E. coli C43 (DE3)
- Km [1]: 614.5 µM
- Km [2]: 334.7 µM
